Assay results: US20140350225A1 (JINAN UNIVERSITY, published 2014)

Biological target: T1, basic Fibroblast Growth Factor (bFGF) (human, UniProt P09038 143-288, limits assumed)
T1 construct: Bought recombinant protein; It was coated on ELISA plates; also called recombined humanized bFGF; antigen bFGF
Assay: indirect ELISA: bFGF coated at 0.5 ug/ml, anti-His-tag detection, A450
Procedure: The recombined humanized bFGF (Sigma-Aldrich Co.) was diluted to 0.5 μg/ml with carbonate buffer solution (0.05 mol/L, pH9.6) to coat ELISA plates at an amount of 100 μL/well, and incubated at 37° C. for 3 h. After discarding the liquid in the well, the plates were washed with PBST (PBS, 0.015 mol/L, pH 7.4, comprising Tween 20 0.05% (v/v)) for three times, blocked with fat-free milk-PBST 5% (wt), added with the ds-Diabody and anti-bFGF ScFv prepared according to example 1 at a certain concentration to achieve an amount of 100 μL/well. Then the plates were incubated at 37° C. for 1 h, washed with PBST for three times, added with 100 μL/well diluted anti-His-tag mouse monoclonal antibody 1:2000 (v/v) (sigma-aldrich Co.), incubated at 37° C. for 1 h, washed with PBS-T for three times again, and then added with diluted HRP marked goat anti-mouse polyclonal antibody (1:8000 (v/v) (sigma-aldrich Co.), and incubated at 37° C. for 0.5 h. After that, the plates were washed with PBS-T for 5 times, stained by TMB and detected at A450. Meanwhile, PBS was used as a negative control.

T1 sequence (P09038 143-288 limits assumed): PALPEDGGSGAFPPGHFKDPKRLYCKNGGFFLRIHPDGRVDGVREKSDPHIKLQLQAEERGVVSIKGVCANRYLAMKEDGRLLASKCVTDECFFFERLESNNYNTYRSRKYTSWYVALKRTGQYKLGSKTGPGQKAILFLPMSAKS

binding result: binds
B1: anti-bFGF humanized ds-Diabody (other)
chain: QSVLTQPASVSGSPGQSITISCTGTSSDVGGYNYVSWYQQHPGKAPKLMIYDVSNRPSGVSNRFSGSKSGNTASLTISGLQAEDEADYYCSSYTSSSTVVFGCGTKLTVLGGGGSQVQLQESGGGLVQPGGSLRLSCAASGFTFSSYEMNWVRQAPGKCLEWVSYISSSGSTIYYADSVKGRFTISRDNAKNSLYLQMNSLRAEDTAVYYCARELTGDWGAFDIWGQGTMVTVSSHHHHHH
notes: Dimer of two VL-GGGGS-VH chains joined covalently by disulfide bonds between Cys at VL 100 and Cys at VH 44; Bivalent; Expressed in HEK 293T cells and purified on a Ni column; also called disulfide bond stabilized-diabody; VL-GGGGS-VH; not shown: N-terminal residues from the vector p3XFLAG-Myc-CMV-25, if any stay on the secreted protein
